# In patent US12065466B2, “Methods and compositions for protein sequencing” (Quantum-Si Incorporated, priority 2020, dated 2024):
# Experiments:
# [1] = tested on: peptides with different N-terminal amino acids, penultimate alanine; experiment: Biolayer interferometry of multivalent amino acid binders; type: binding
# Protocol: The amino acid binding profile of each Bis-atClpS2-V1 binder (PS609, PS610, and PS611) was evaluated by biolayer interferometry as described above. The monovalent atClpS2-V1 was run as a control. Measurements with each binder were carried out for the amino acids F, Y, and W, along with I, L, M, and V as negative controls. All peptides contained a penultimate alanine (A). Response curves for the tandem binders PS609, PS610, and PS611 are shown in FIGS. 35B, 35C, and 35D, respectively.
# The multivalent binder PS612 is a polypeptide that contains tandem copies of two different ClpS protein monomers (atClpS2-V1 and PS372). The amino acid binding profile of PS612 was evaluated by biolayer interferometry as described above. The monovalent binders atClpS2-V1 and PS372 were separately run as controls.
# The multivalent binder PS614 is a polypeptide that contains two copies of the ClpS binder PS372 oriented in tandem. The amino acid binding profile of PS614 was evaluated by biolayer interferometry as described above.
# The multivalent binders PS637, PS638, and PS639 are polypeptides that each contain two copies of the ClpS binder PS557 oriented in tandem and separated by Linker 1, Linker 2, and Linker 3, respectively. The amino acid binding profiles of each binder was evaluated by biolayer interferometry as described above.
# [2] = tested on: labeled N-terminal FA peptide; experiment: Stopped-flow dissociation rate (koff), atClpS2-V1 derivatives; type: binding; details: excess unlabeled trap peptide
# Description: (§1) To measure the dissociation rate (koff) by stopped-flow, complexes of binder bound to labeled peptide substrate at an optimal concentration were rapidly mixed with excess unlabeled trap peptide. […] The averaged raw traces were fitted with an exponential equation to determine the koff (FIG. 37B, bottom panel).
# [3] = tested on: amino acid at a terminal position of a polypeptide; experiment: Amino acid binding preference of recognition proteins (Tables 1 and 2); details: Table 1, ClpS proteins; amino acid identity at a terminal position of a polypeptide; inferred from literature and/or demonstrated by the inventors
# Description: It should be appreciated that these sequences and other examples described herein are meant to be non-limiting, and recognition molecules in accordance with the application can include any homologs, variants thereof, or fragments thereof minimally containing domains or subdomains responsible for peptide recognition.
# [4] = tested on: FA, LF, WA, and YA peptides; experiment: Binder-on-chip single-molecule assay (PS218 and wild-type atClpS1); type: binding; parameters: unit not given here
# Protocol: A variant of atClpS1 was created with active-site substitutions rationally designed to achieve longer pulse widths which can be favorable in single-molecule sequencing reactions. The designed variant (PS218) contains the following mutations relative to wild-type atClpS1: M51F, E52Q, M73T, T70 W. Binder-on-chip experiments were performed for PS218 with FA, LF, WA, and YA peptides to evaluate recognition by signal pulse detection in single-molecule assays. As shown by the results in Table 7, the substitutions relative to the wild-type protein result in longer pulse widths with each peptide tested.
# [5] = tested on: N-terminal amino acids of peptides; experiment: Single-molecule terminal amino acid recognition by labeled recognition molecule (dwell time analysis); type: binding
# Protocol: An adaptor protein involved in proteolytic pathways was identified as a potential candidate for use as a labeled recognition molecule for detecting N-terminal aromatic residues. The adaptor protein, ClpS2 from an α-proteobacterium (A. tumefaciens), was expressed and labeled at an exposed cysteine residue. […] The exposed cysteine residue was labeled with a rhodamine dye (ATTO 532).
# Peptides having different N-terminal aromatic residues were prepared to test whether the labeled ClpS2 was capable of N-terminal amino acid discrimination at the single molecule level.
# FIG. 19C is a plot showing discriminant pulse durations (time duration of signal peaks) among the three N-terminal residues when reversibly bound by labeled ClpS2. FIG. 19D is a plot showing discriminant interpulse durations (time duration between signal pulses) among the three N-terminal residues. […] Mean pulse duration for the different N-terminal residues is visualized by histograms (A)-(B) and layered histogram (C).
# [6] = tested on: labeled N-terminal LA peptide; experiment: Stopped-flow dissociation rate (koff), PS557 derivatives; type: binding; details: excess unlabeled trap peptide
# Description: as §1
molecule,measurement,setting,value
PS639: two copies of PS557 in tandem separated by Linker 3 (protein) MPTAASATESAIEDTPAPARPEVDGRTKPKRQPRYHVVLWNDDDHTYQYVVVMLQSLFGHPPERGYRLAKEVDTQGRVIVLTTTREHAELKRDQIHAFGYDRLLARSKGSMKASIEAEEGSAGSAAGSGEFGSAGSAAGSGEFGSAGSAAGSGEFMPTAASATESAIEDTPAPARPEVDGRTKPKRQPRYHVVLWNDDDHTYQYVVVMLQSLFGHPPERGYRLAKEVDTQGRVIVLTTTREHAELKRDQIHAFGYDRLLARSKGSMKASIEAEEGGSHHHHHHHHHHGGGSGGGSGGGSGLNDFFEAQKIEWHEGGGSGGGSGGGSGLNDFFEAQKIEWHE,N-terminal amino acids bound (biolayer interferometry),[1],"N-terminal I, L, and V"
PS703 (protein) MSDSPVDLKPKPKVKPKLERPKLYKVMLLNDDYTPMSFVTVVLKAVFRMSEDTGRRVMMTAHRFGSAVVVVCERDIAETKAKEATDLGKEAGFPLMFTTEPEEGSAGSAAGSGEFMDKDCEMKRTTLDSPLGKLELSGCEQGLHEIKLLGKGTSAADAVEVPAPAAVLGGPEPLMQATAWLNAYFHQPEAIEEFPVPALHHPVFQQESFTRQVLWKLLKVVKFGEVISYQQLAALAGNPAATAAVKTALSGNPVPILIPCHRVVSSSGAVGGYEGGLAVKEWLLAHEGHRLGKPGLGGSAGSAAGSGEFHHHHHHHHHHGGGSGGGSGGGSGLNDFFEAQKIEWHEGGGSGGGSGGGSGLNDFFEAQKIEWHE,FA koff,[2],0.7674 s⁻¹
"PS218: designed variant of atClpS1 with active-site substitutions, SEQ ID NO: 98 (protein) MIAEPICMQGEGDGEDGGTNRGTSVITRVKPKTKRPNLYRVLLLNDDYTPFQFVIHILERFFQKDREAAWRITLHVHQHGVGECGVFTYEVAETKVSQVMDFARQHQHPLQCVMEKK",Binding Pref.,[3],"F, W, Y, L"
same,Median PW,[4]; FA peptide,0.78
same,mean pulse width,[4]; FA peptide,1.28
same,Median PW,[4]; LF peptide,0.32
same,mean pulse width,[4]; LF peptide,0.56
same,Median PW,[4]; WA peptide,0.58
same,mean pulse width,[4]; WA peptide,1.00
same,Median PW,[4]; YA peptide,1.06
same,mean pulse width,[4]; YA peptide,1.64
PS637: two copies of PS557 in tandem separated by Linker 1 (protein) MPTAASATESAIEDTPAPARPEVDGRTKPKRQPRYHVVLWNDDDHTYQYVVVMLQSLFGHPPERGYRLAKEVDTQGRVIVLTTTREHAELKRDQIHAFGYDRLLARSKGSMKASIEAEEGGGSGGGSGGGSGMPTAASATESAIEDTPAPARPEVDGRTKPKRQPRYHVVLWNDDDHTYQYVVVMLQSLFGHPPERGYRLAKEVDTQGRVIVLTTTREHAELKRDQIHAFGYDRLLARSKGSMKASIEAEEGGSHHHHHHHHHHGGGSGGGSGGGSGLNDFFEAQKIEWHEGGGSGGGSGGGSGLNDFFEAQKIEWHE,N-terminal amino acids bound (biolayer interferometry),[1],"N-terminal I, L, and V"
PS704 (protein) MSDSPVDLKPKPKVKPKLERPKLYKVMLLNDDYTPMSFVTVVLKAVFRMSEDTGRRVMMTAHRFGSAVVVVCERDIAETKAKEATDLGKEAGFPLMFTTEPEEGSAGSAAGSGEFMDKDCEMKRTTLDSPLGKLELSGCEQGLHEIKLLGKGTSAADAVEVPAPAAVLGGPEPLMQATAWLNAYFHQPEAIEEFPVPALHHPVFQQESFTRQVLWKLLKVVKFGEVISYQQLAALAGNPAATAAVKTALSGNPVPILIPCHRVVSSSGAVGGYEGGLAVKEWLLAHEGHRLGKPGLGMDKDCEMKRTTLDSPLGKLELSGCEQGLHEIKLLGKGTSAADAVEVPAPAAVLGGPEPLMQATAWLNAYFHQPEAIEEFPVPALHHPVFQQESFTRQVLWKLLKVVKFGEVISYQQLAALAGNPAATAAVKTALSGNPVPILIPCHRVVSSSGAVGGYEGGLAVKEWLLAHEGHRLGKPGLGGSAGSAAGSGEFHHHHHHHHHHGGGSGGGSGGGSGLNDFFEAQKIEWHEGGGSGGGSGGGSGLNDFFEAQKIEWHE,FA koff,[2],0.6774 s⁻¹
"Synechococcus elongatus ClpS2: ClpS protein, SEQ ID NO: 106 (protein, listed as Synechococcus elongatus) MSPQPDESVLSILGVPRPCVKKRSRNDAFVLTVLTCSLQAIAAPATAPGTTTTRVRQPYPHFRVIVLDDDVNTFQHVAECLLKYIPGMTGDRAWDLTNQVHYEGAATVWSGPQEQAELYHEQLRREGLTMAPLEAA",Binding Pref.,[3],"F, W, Y, L"
same,recognition of terminal amino acids (dwell time analysis),[5],leucine recognition
PS696 (protein) MPTAASATESAIEDTPAPARPEVDGRTKPKRQPRYHVVLWNDDDHTYQYVVVMLQSLFGHPPERGYRLAKEVDTQGRVIVLTTTREHAELKRDQIHAFGYDRLLARSKGSMKASIEAEEGSAGSAAGSGEFMDKDCEMKRTTLDSPLGKLELSGCEQGLHEIKLLGKGTSAADAVEVPAPAAVLGGPEPLMQATAWLNAYFHQPEAIEEFPVPALHHPVFQQESFTRQVLWKLLKVVKFGEVISYQQLAALAGNPAATAAVKTALSGNPVPILIPCHRVVSSSGAVGGYEGGLAVKEWLLAHEGHRLGKPGLGGSAGSAAGSGEFHHHHHHHHHHGGGSGGGSGGGSGLNDFFEAQKIEWHEGGGSGGGSGGGSGLNDFFEAQKIEWHE,LA koff,[6],0.15 s⁻¹
PS612: polypeptide with tandem copies of two different ClpS monomers (atClpS2-V1 and PS372) (protein) MSDSPVDLKPKPKVKPKLERPKLYKVMLLNDDYTPMSFVTVVLKAVFRMSEDTGRRVMMTAHRFGSAVVVVCERDIAETKAKEATDLGKEAGFPLMFTTEPEEGSAGSAAGSGEFMAFPARGKTAPKNEVRRQPPYNVILLNDDDHTYRYVIEMLQKIFGFPPEKGFQIAEEVDRTGRVILLTTSKEHAELKQDQVHSYGPDPYLGRPCSGSMTCVIEPAVGGSHHHHHHHHHHGGGSGGGSGGGSGLNDFFEAQKIEWHEGGGSGGGSGGGSGLNDFFEAQKIEWHE,N-terminal amino acids bound (biolayer interferometry),[1],"N-terminal F, W, Y, I, L, and V"
PS614: polypeptide with two copies of the ClpS binder PS372 oriented in tandem (protein) MAFPARGKTAPKNEVRRQPPYNVILLNDDDHTYRYVIEMLQKIFGFPPEKGFQIAEEVDRTGRVILLTTSKEHAELKQDQVHSYGPDPYLGRPCSGSMTCVIEPAVGSAGSAAGSGEFMAFPARGKTAPKNEVRRQPPYNVILLNDDDHTYRYVIEMLQKIFGFPPEKGFQIAEEVDRTGRVILLTTSKEHAELKQDQVHSYGPDPYLGRPCSGSMTCVIEPAVGGSHHHHHHHHHHGGGSGGGSGGGSGLNDFFEAQKIEWHEGGGSGGGSGGGSGLNDFFEAQKIEWHE,N-terminal amino acids bound (biolayer interferometry),[1],"N-terminal I, L, and V"
PS638: two copies of PS557 in tandem separated by Linker 2 (protein) MPTAASATESAIEDTPAPARPEVDGRTKPKRQPRYHVVLWNDDDHTYQYVVVMLQSLFGHPPERGYRLAKEVDTQGRVIVLTTTREHAELKRDQIHAFGYDRLLARSKGSMKASIEAEEGSAGSAAGSGEFMPTAASATESAIEDTPAPARPEVDGRTKPKRQPRYHVVLWNDDDHTYQYVVVMLQSLFGHPPERGYRLAKEVDTQGRVIVLTTTREHAELKRDQIHAFGYDRLLARSKGSMKASIEAEEGGSHHHHHHHHHHGGGSGGGSGGGSGLNDFFEAQKIEWHEGGGSGGGSGGGSGLNDFFEAQKIEWHE,N-terminal amino acids bound (biolayer interferometry),[1],"N-terminal I, L, and V"
